Laboratory results as given in the supplement of paper PMC7125110.
± gives the standard error. For part of these data: Fewer inactive variants are shown than the library holds.

B1: glmS ribozyme (parent)
chain: AUAAAAGCGCCAGAACUACAGAAAUGUAGUUGACGAGGAGGAGGUUUAUCGAAUUUUCGGCGGAUGCCUCCAAA

Tests used:
Conditions in all cases: with glucosamine-6-phosphate
glucosamine-6-phosphate [1] = variants of: B1; assay: kcat; higher = faster cleavage; RNA array
How it was run: (§1)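 On sequenced MiSeq chips, barcoded ribozyme variants were made in situ by E. coli RNA polymerase and followed at 37 °C through a hybridised Cy3 probe. Glucosamine-6-phosphate was flowed in at 40 μM to 10 mM in HEPES/KCl/Mg(OAc)2 buffer. Exponential fits to normalised per-tile medians gave kobs, and weighted Michaelis–Menten fits gave kcat and KM.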

glucosamine-6-phosphate [2] = variants of: B1; assay: self-cleavage kobs at 40 uM GlcN6P; higher = faster cleavage; RNA array
How it was run: as §1

glucosamine-6-phosphate [3] = variants of: B1; assay: self-cleavage kobs at 640 uM GlcN6P; higher = faster cleavage; RNA array
How it was run: as §1

glucosamine-6-phosphate [4] = variants of: B1; assay: KM; higher = weaker cofactor use; RNA array
How it was run: as §1

glucosamine-6-phosphate [5] = variants of: B1; assay: self-cleavage kobs at 160 uM GlcN6P; higher = faster cleavage; RNA array
How it was run: as §1

glucosamine-6-phosphate [6] = variants of: B1; assay: self-cleavage kobs at 2500 uM GlcN6P; higher = faster cleavage; RNA array
How it was run: as §1

glucosamine-6-phosphate [7] = variants of: B1; assay: self-cleavage kobs at 10000 uM GlcN6P; higher = faster cleavage; RNA array
How it was run: as §1

Row | Variant | kcat (glucosamine-6-phosphate [1]) [s⁻¹] | self-cleavage kobs at 40 uM GlcN6P (glucosamine-6-phosphate [2]) [s⁻¹] | self-cleavage kobs at 640 uM GlcN6P (glucosamine-6-phosphate [3]) [s⁻¹] | KM (glucosamine-6-phosphate [4]) [µM] | self-cleavage kobs at 160 uM GlcN6P (glucosamine-6-phosphate [5]) [s⁻¹] | self-cleavage kobs at 2500 uM GlcN6P (glucosamine-6-phosphate [6]) [s⁻¹] | self-cleavage kobs at 10000 uM GlcN6P (glucosamine-6-phosphate [7]) [s⁻¹]
1 | G37U U47G | < 1e-05 | < 1e-05 | < 1e-05 |  |  |  | 
2 | A15C A53U | 0.00401 ± 0.00066 | 9.37e-05 ± 1.2e-05 | 0.00119 ± 0.00025 | 1690 ± 400 | 0.000395 ± 9e-05 | 0.00184 ± 0.00036 | 0.00391 ± 0.00049
3 | A39G U56A | 0.0171 ± 0.0023 | 0.000348 ± 6.9e-05 | 0.0049 ± 0.00073 | 1670 ± 340 | 0.00162 ± 0.00029 | 0.0133 ± 0.0025 | 0.0137 ± 0.0019
4 | A53C U65G | 0.00136 ± 0.0002 |  | 0.000197 ± 2.5e-05 | 3420 ± 810 | 8.25e-05 ± 1.4e-05 | 0.000555 ± 6.7e-05 | 0.00104 ± 0.0001
5 | G32U U55G | 0.000798 ± 0.0002 |  | 0.000151 ± 2.5e-05 | 3110 ± 1400 |  | 0.000274 ± 6.5e-05 | 0.000652 ± 9e-05
6 | A6C G29C | < 1e-05 |  |  |  | < 1e-05 |  | 
7 | A48C U56A | 0.000146 ± 3.6e-05 |  |  |  |  | 7.8e-05 ± 1.6e-05 | 0.000107 ± 1.7e-05
8 | U45A U47C | 0.00985 ± 0.0035 | 0.00017 ± 4.6e-05 | 0.00165 ± 0.00043 | 2660 ± 1300 |  | 0.0091 ± 0.0044 | 0.00776 ± 0.0024
9 | G37U C67U | 1.39e-05 ± 4.5e-06 | < 1e-05 |  |  |  |  | 
10 | G60C C68G | 1.2e-05 ± 1.5e-06 |  |  |  |  |  | 
11 | A6G A15U | 7.69e-05 ± 9.2e-06 | < 1e-05 | 2.52e-05 ± 1e-05 |  |  | 7.01e-05 ± 1.2e-05 | 6.82e-05 ± 6.2e-06
12 | A14C U65C | 8.26e-05 ± 1.1e-05 | < 1e-05 | 3.59e-05 ± 1.4e-05 | 1220 ± 570 |  | 4.9e-05 ± 1.1e-05 | 7.7e-05 ± 1.2e-05
13 | A6G A39C | 0.00012 ± 4e-06 |  | 3.27e-05 ± 8.5e-06 | 1580 ± 180 |  | 7.92e-05 ± 1.4e-05 | 0.000103 ± 8.7e-06
14 | G13C G43U C67A | 6.76e-05 ± 3.4e-05 |  |  |  |  |  | 
15 | A53G C70A | 0.000194 ± 2e-05 | 7.6e-05 ± 7e-06 | 0.000188 ± 2.3e-05 | 63.2 ± 16 | 0.000132 ± 1.6e-05 | 0.000183 ± 2.6e-05 | 
16 | A14G A15C | 0.0193 ± 0.0062 | 0.00141 ± 0.00023 | 0.0155 ± 0.0029 | 584 ± 270 | 0.00312 ± 0.00073 | 0.012 ± 0.0039 | 0.0199 ± 0.0053
